Where two headings read alike, the source gives them in different places.
Key:
[1] = biological target: membrane-bound immunoglobulin heavy mu chain (B-cell receptor, IgM) on Ramos lymphoma cells (Homo sapiens) (UniProt P01871); details: confocal staining of Ramos xenograft brain slices, 1.0 uM, 10 min; target not purified
[2] = biological target: membrane-bound immunoglobulin heavy mu chain (B-cell receptor, IgM) on Ramos lymphoma cells (Homo sapiens) (UniProt P01871); details: confocal staining of Ramos xenograft brain slices, 1.0 uM, 10 min on ice, 6 mM MgCl2, 1.2 mM CaCl2, PBS, yeast tRNA; U251 glioma 0.81% and normal brain 0.80% …

Chain of UniProt P01871 (P01871 1-450): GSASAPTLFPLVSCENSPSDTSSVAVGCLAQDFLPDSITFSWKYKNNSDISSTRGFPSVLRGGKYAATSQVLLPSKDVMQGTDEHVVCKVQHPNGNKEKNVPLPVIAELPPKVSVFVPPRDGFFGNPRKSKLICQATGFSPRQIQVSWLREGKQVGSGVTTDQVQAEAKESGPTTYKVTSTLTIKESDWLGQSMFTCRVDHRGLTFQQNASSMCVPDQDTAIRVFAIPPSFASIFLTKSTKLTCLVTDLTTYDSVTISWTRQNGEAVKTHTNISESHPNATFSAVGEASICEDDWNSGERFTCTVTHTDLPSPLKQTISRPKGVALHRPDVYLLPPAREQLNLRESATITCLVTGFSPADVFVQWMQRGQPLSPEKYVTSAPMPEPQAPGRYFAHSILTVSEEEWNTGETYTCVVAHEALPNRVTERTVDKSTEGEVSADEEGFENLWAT

Substance	binding (% cells labeled) [1]	binding (% cells labeled) [2]
nonspecific Alexa Fluor 488 aptamer	2.71	–
AGGAGGATAGTTCGGTGGCTGTTCAGGGTCTCCTCCT [TD05-488]	–	76.7
